For one substance, factor Xa amidolytic assay, 50% inhibitory concentration results are on record in patent US20050064556A1.

This assay deals with factor Xa. Put plainly: cell-based or functional assay.

“Tissue Factor Pathway Inhibitor (TFPI), yeast-produced, authentic mature 276 amino acid polypeptide (from UniProt P10646 29-304)” showed a factor Xa amidolytic assay, 50% inhibitory concentration of 20 ng/mL.
